Target: Fluorescently labelled replication protein A (Flu-RPA) (human) (UniProt P27694)
Sequence (P27694 whole entry, chain 1 of 3): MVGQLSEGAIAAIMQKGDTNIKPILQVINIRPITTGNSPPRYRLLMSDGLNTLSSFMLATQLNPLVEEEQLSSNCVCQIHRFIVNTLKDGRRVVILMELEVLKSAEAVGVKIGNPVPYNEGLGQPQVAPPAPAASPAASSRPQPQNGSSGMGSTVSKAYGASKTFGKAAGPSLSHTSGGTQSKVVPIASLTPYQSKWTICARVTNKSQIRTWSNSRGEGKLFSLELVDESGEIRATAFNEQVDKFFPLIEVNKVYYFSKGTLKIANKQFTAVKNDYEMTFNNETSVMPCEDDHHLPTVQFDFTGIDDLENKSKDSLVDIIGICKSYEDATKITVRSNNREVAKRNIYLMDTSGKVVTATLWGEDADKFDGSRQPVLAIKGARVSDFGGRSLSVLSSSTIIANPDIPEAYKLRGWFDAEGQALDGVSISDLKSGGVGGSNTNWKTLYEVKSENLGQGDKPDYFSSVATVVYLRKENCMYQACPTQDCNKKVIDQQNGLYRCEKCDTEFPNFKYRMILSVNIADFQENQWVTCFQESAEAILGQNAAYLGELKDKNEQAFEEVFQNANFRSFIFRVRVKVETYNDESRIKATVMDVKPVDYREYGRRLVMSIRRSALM
Sequence (P15927 whole entry, chain 2 of 3, further chain): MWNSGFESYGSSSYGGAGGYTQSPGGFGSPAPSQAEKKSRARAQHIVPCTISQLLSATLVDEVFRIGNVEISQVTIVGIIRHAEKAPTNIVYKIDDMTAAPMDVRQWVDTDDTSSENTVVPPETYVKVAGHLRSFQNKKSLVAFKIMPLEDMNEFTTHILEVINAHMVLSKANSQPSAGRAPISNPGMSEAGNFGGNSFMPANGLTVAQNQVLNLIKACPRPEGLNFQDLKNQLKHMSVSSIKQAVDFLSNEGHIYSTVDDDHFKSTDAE
Sequence (P35244 whole entry, chain 3 of 3, further chain): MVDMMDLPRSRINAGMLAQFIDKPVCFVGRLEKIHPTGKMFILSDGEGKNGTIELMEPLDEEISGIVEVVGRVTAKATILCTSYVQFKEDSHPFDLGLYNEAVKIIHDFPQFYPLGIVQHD

Chain of Recombinant human xeroderma pigmentosum group A protein (hXPA) bearing the N-terminal polyhistidine fragment (P23025 whole entry, the tested form may be a part): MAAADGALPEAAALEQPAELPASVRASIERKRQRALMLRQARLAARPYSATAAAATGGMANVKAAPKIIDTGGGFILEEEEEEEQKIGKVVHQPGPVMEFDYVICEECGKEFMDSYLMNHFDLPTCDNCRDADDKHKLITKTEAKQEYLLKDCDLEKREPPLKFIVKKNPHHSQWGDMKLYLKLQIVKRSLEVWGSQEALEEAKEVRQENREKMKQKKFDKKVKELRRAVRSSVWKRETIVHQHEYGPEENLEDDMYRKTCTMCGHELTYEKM

EC50: 0.018 µM
Substance: Recombinant human xeroderma pigmentosum group A protein (hXPA) bearing the N-terminal polyhistidine fragment (from UniProt P23025 1-273) (natural protein)
